From US20160304604A1 (H LUNDBECK A S, published 2016)

T1: human PACAP38 (human, not fully specified; C-terminal lysine is amidated)
T1 construct: unlabeled in SPR; also called huPACAP (1-38); wild-type PACAP
T1 peptide: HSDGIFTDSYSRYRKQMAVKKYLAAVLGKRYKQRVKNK

T2: human PACAP27 (human, C-terminal leucine is amidated)
T2 peptide: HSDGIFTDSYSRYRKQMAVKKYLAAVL

T3: PAC1-R on PC-12 cells (UniProt P32215 20-523)
T3 construct: whole, on cells; Endogenous receptor of PC-12 cells; also called PAC1 receptor; PAC1-R-expressing PC-12 cells
T3 sequence (looked up): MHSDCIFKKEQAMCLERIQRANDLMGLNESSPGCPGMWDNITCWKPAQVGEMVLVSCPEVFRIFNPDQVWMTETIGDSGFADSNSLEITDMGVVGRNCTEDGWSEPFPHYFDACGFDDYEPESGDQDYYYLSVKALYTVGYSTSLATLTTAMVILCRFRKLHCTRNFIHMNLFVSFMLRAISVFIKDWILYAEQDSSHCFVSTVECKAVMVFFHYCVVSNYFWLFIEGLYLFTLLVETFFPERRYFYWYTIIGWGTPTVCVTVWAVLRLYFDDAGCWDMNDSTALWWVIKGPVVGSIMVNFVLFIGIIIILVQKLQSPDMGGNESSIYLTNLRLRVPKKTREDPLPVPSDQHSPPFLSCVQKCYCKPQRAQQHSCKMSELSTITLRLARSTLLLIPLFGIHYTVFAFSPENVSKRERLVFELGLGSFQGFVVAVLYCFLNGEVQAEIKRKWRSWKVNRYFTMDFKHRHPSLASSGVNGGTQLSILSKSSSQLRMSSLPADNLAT


Tests used:
[1] = target: T1, human PACAP38; assay: SPR (ProteOn XPR36), antibody amine-coupled to chip, PACAP38 as analyte 1.23-100 nM, 1:1 Langmuir fit
Description: Binding affinities of monoclonal antibodies for human PACAP were estimated using SPR on the PROTEON™ XPR36 (Bio-Rad, Hercules, Calif.). Antibody was immobilized to the surface of general amine coupling (“GLC” or “GLM”) Chips (Bio-Rad, Hercules, Calif.). A dilution series of human PACAP38 (SEQ ID NO: 1241) prepared in 1×PBST Buffer (4.3 mM Na Phosphate, 1.4 mM K Phosphate, 135 mM NaCl, 2.7 mM KCl 0.05% Polysorbate-20) purchased from Teknova (Cat# P1192, Teknova, Hollister, Calif.) and supplemented with 0.25 M arginine (from J. T. BAKER®), 0.2 mg/ml BSA (Jackson Immuno Research Labs, West Grove, Pa.), and 0.005% sodium azide (VWR International, Radnor, Pa.) with the pH adjusted to 7 was used to query the antibodies. Antigen (ranging from 1.23 nM to 100 nM) was typically run sequentially with association times of 2-4 minutes and dissociation times of 3-120 minutes grouped with the PROTEON™ Manager Software (v3.1.0.6 (Bio-Rad, Hercules, Calif.)) and fitted using a 1:1 Langmuir binding model. Surfaces were regenerated between analyte queries using 0.85% Phosphoric Acid.

[2] = target: T2, human PACAP27; assay: SPR (ProteOn XPR36), antibody amine-coupled to chip, PACAP27 as analyte 1.23-1000 nM
[3] = target: T1, human PACAP38; assay: cell-based or functional assay
[4] = target: T2, human PACAP27; assay: cell-based or functional assay
[5] = target: T1, human PACAP38; assay: cell-based or functional assay
[6] = target: T1, human PACAP38; assay: cell-based or functional assay
[7] = target: T3, PAC1-R on PC-12 cells; assay: DELFIA TRF cell-surface binding assay: antibody pre-incubated with PACAP38 (200 nM stock mixed 1:1), added to PAC1-R-expressing PC-12 cells, Eu anti-human IgG detection
Description: Cells were initially seeded at 1×10⁵ cells/well in a solution of complete RPMI (“cRPMI”: RPMI medium supplemented with 10% sterile heat-inactivated FBS and 1% sterile antibiotic/antimycotic)+10% FBS, and the plates were allowed to incubate overnight at 37° C. On the day of the binding assay, antibodies at an initial concentration of 15 μg/ml were diluted at a 1:3 ratio in DELFIA® binding buffer (50 mM Tris, 150 mM NaCl, 0.1% azide, 2% horse serum) (Perkin-Elmer, Waltham, Mass.) to a total volume of 60 μL in a separate 96 well round bottom plate. PACAP38 was prepared for the binding assay by diluting it in DELFIA® binding buffer to a concentration of 200 nM, and then 60 μl of the diluted PACAP38 was added to each of the antibody-containing wells to form antibody:antigen complexes. Following addition of PACAP38, the antibody:antigen complexes were incubated at room temperature on a shaker for 1 hour. […]
DELFIA® Europium labeled anti-human IgG detection reagent (Cat #1244-330, Perkin-Elmer, Waltham, Mass.) was diluted to a concentration of 300 ng/ml in DELFIA® Binding Buffer. […] The plates were then read (TRF, excitation 330 nm, emission 620 nm) on a SPECTRAMAX® (Molecular Devices, Sunnyvale, Calif.) plate reader.

Binder | Kd [1] | koff [1] | Kd [2] | koff [2] | Inhibition of 5 nM PACAP38-induced human VPAC1-R mediated cAMP increase IC50 (CHO-K1 cells, HTRF) [3] | Inhibition of 0.1 nM PACAP27-induced PAC1-R mediated cAMP increase IC50 (PC-12 cells, HTRF) [4] | Inhibition of 0.1 nM PACAP38-induced PAC1-R mediated cAMP increase IC50 (PC-12 cells, HTRF) [5] | Inhibition of 1 nM PACAP38-induced human VPAC2-R mediated cAMP increase IC50 (CHO-K1 cells, HTRF) [6] | binding result [7]
Ab21.H (antibody, V domains shown) VH: EVQLVESGGGLVQPGGSLRLSCAASGIDLSSYYMTWVRQAPGKGLEWIGFIDAGGSAYYATWAKGRFTISRDNSKNTVYLQMNSLRAEDTAVYFCARDLDLWGQGTLVTVSS VL: DAQLTQSPSTLSASVGDRVTITCKSSESVYGDYLAWFQQKPGKAPKQLIYDASTLASGVPSRFSGSGSGTEFTLTISSLQPDDFATYYCAGGYVSAGVAFGGGTKVEIKR | 0.021 nM | 1e-05 s⁻¹ | 0.016 nM | 1e-05 s⁻¹ | 2.1 nM | 0.204 nM | 0.246 nM | 1.51 nM | –
Ab10 (antibody, human IgG1, kappa, N297A, V domains shown, also called anti-PACAP antibody Ab10) VH: QSVEESGGRLVTPGTPLTLTCTVSGIDLNSYYMTWVRQAPGKGLEWIGFIDAGGDAYYASWAKGRFTISKTSTTVDLKITSPTTEDTATYFCARDLDLWGQGTLVTVSS VL: AAVLTQTPSPVSAAVGGTVTINCQSSESVYGNYLAWFQQKPGQPPKLLIYEASKLESGVPSRFSGSGSGTQFTLTISDLQCDDAATYYCAGGDISEGVAFGGGTEVVVKR | – | – | – | – | 0.649 nM | 0.227 nM | 0.18 nM | 0.189 nM | no binding (tested: about 5000 nM (last point as drawn))
Ab21 (antibody, human IgG1, kappa, N297A, V domains shown) VH: QSVEESGGRLVTPGTPLTLTCTVSGIDLSSYYMTWVRQAPGKGLEWVGFIDAGGSAYYATWAKGRFTISKASTTVDLKITSPTTEDTATYFCARDLDLWGPGTLVTVSS VL: AAVLTQTPSPVSAAVGGTVSISCKSSESVYGDYLAWFQQKPGQPPKQLIYDASTLASGVPSRFKGSGSGTQFTLTISGVQCDDAATYYCAGGYVSAGVAFGGGTEVVVKR | – | – | – | – | 2.85 nM | 0.14 nM | 0.239 nM | 5.21 nM | –
Ab20 (antibody, human IgG1, kappa, N297A, V domains shown) VH: QSVEESGGRLVTPGTPLTLTCTVSGIDLSSYYMSWVRQAPGKGLEWIGFIDTDGSAYYATWAKGRFTISKTSTTVDLKITSPTTEDTATYFCARDLDLWGPGTLVTVSS VL: AAVLTQTPSPVSAAVGGTVSISCQSSESVYSNYLAWFQQKPGQPPKFLIYEASKLASGVPSRFKGSGSGTQFTLTISDVQCDDAGTYYCAGGYSSEGVAFGGGTEVVVKR | – | – | – | – | 3.89 nM | 0.188 nM | 0.368 nM | 14.6 nM | –
